The results in this text go back to paper PMC5435944.

This data set has as its target Mre11-Rad50 (hMR) WT-WT;Nbs1 (Homo sapiens;Homo sapiens, UniProt Q92878;P49959;O60934 1-1312;1-708;1-754, |). Nature of the data set: EMSA. A general note: A gel shift assay detects complexes by their altered migration in electrophoresis.

Chain of Mre11-Rad50 (hMR) WT-WT;Nbs1 (Q92878 whole entry, chain 1 of 3): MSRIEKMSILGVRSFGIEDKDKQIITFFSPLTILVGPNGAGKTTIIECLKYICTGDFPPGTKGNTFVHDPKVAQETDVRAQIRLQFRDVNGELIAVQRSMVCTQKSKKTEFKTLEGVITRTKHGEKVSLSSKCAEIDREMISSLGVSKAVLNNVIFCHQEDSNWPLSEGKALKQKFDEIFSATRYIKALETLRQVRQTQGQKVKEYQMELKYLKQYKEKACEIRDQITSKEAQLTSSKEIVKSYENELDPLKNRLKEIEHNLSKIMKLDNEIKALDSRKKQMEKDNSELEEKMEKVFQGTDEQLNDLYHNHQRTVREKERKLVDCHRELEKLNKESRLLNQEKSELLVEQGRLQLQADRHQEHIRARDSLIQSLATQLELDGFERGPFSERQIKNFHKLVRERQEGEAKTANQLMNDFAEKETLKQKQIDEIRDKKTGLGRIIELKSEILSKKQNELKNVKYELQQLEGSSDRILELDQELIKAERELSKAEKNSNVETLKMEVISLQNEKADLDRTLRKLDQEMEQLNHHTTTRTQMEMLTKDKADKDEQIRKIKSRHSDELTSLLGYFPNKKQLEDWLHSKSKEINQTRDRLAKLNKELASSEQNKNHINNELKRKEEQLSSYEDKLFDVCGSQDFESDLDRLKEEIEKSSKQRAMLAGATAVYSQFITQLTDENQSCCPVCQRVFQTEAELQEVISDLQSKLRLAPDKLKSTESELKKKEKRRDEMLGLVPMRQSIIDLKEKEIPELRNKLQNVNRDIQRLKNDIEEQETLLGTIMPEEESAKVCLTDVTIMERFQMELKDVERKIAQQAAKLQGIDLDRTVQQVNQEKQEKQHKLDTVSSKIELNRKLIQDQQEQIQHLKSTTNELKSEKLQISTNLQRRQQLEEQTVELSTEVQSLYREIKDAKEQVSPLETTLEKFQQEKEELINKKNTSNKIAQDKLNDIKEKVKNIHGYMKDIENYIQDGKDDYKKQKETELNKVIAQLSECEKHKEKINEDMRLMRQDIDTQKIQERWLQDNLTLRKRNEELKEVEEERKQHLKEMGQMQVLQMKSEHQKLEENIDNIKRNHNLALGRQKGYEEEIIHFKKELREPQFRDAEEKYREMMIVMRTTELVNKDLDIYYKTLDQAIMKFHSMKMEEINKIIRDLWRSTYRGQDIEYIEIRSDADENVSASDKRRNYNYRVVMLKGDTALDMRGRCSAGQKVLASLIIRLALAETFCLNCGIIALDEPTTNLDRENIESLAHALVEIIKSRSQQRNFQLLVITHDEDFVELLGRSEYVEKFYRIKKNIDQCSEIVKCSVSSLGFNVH
Chain of Mre11-Rad50 (hMR) WT-WT;Nbs1 (P49959 whole entry, chain 2 of 3): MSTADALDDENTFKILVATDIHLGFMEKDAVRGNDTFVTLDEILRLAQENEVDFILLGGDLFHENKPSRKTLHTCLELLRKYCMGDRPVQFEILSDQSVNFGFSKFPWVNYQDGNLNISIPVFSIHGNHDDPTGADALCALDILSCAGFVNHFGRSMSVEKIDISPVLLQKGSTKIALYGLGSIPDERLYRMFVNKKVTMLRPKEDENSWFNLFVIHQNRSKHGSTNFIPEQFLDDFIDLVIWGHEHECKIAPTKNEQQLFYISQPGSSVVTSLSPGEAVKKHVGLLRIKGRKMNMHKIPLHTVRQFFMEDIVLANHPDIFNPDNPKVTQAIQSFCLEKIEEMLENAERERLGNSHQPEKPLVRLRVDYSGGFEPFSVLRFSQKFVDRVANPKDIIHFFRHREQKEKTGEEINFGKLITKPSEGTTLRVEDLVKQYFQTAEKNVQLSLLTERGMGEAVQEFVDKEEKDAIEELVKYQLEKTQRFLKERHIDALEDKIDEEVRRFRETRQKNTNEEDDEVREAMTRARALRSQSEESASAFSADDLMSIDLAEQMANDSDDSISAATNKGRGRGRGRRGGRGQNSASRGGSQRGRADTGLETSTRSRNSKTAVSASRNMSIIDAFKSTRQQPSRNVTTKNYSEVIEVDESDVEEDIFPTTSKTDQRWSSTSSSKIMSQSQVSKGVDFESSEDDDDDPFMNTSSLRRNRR
Chain of Mre11-Rad50 (hMR) WT-WT;Nbs1 (O60934 whole entry, chain 3 of 3): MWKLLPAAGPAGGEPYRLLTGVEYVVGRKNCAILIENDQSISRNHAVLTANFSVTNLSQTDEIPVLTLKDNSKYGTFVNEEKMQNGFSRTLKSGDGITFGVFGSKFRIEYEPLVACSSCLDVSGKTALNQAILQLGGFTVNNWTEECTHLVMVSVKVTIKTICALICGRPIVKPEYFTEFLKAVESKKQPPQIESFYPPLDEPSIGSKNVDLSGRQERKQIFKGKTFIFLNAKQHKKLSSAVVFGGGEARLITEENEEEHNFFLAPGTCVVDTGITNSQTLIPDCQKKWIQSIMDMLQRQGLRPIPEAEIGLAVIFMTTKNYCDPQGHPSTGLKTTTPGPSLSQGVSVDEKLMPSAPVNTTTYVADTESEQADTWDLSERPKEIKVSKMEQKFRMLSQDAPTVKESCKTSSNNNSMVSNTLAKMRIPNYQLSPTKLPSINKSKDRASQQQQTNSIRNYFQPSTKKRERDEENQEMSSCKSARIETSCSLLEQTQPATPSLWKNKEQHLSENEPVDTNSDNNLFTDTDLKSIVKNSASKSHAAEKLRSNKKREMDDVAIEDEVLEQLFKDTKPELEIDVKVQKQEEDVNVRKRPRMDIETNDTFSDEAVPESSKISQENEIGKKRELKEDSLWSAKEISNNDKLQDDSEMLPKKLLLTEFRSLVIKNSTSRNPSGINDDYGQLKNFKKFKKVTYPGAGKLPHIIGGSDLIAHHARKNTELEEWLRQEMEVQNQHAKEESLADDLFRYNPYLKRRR

B1: TP4536/TP4559 (dsDNA)
DNA 1: TGGGTCAACGTGGGCAAAGATGTCCTAGCAATGTAATCGTCTATGACGTT
DNA 2: AACGTCATAGACGATTACATTGCTAGGACATCTTTGCCCACGTTGACCCA
modifications: 5' biotin-TEG on strand 1; five phosphorothioate bonds at 3' end of strand 2 (G*A*C*C*C*A)
With B1, the binding result is recorded as “binds”.
